# Reference: patent publication US20030206886A1 (UNIVERSITY OF MEDICINE AND DENTISTRY OF NEW JERSEY, published 2003)
# T1: human IL-10 receptor immunoadhesin (isotype not stated, control of FIG. 3 bottom) (human, UniProt Q13651 22-235)
# T1 construct: extracellular domain; not shown: human IgG1 or IgA1 hinge-CH2-CH3
# T1 sequence (looked up): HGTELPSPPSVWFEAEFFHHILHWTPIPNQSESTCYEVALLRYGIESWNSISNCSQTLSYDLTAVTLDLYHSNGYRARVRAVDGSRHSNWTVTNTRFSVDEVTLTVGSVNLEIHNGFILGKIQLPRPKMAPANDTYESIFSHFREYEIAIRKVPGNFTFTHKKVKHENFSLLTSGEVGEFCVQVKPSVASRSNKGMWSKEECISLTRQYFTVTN
# T2: murine IL-10 receptor IgG immunoadhesin (murine, UniProt Q61727 17-241)
# T2 construct: Used as specificity control; also called murine IL-10 R immunoadhesin; murine IL-10 receptor immunoadhesin; not shown: IgG backbone
# T2 sequence (looked up): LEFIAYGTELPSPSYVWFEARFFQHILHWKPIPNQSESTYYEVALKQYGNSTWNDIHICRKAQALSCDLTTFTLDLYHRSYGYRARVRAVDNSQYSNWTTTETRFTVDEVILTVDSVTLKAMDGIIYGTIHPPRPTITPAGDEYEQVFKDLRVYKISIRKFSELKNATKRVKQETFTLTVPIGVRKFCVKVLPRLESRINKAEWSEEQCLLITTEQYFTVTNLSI
# T3: human IL-10 receptor IgG immunoadhesin (human, UniProt Q13651 22-235)
# T3 construct: extracellular domain; Tested as concentrated supernatant of cells infected with recombinant vaccinia; also called human IL-10R adhesin; human IL-10 R adhesin; not shown: human IgG1 heavy chain hinge, CH2 and CH3 domains, amplified from ARH-77 cDNA; joined through a SalI site; residue limit
# T3 sequence (looked up): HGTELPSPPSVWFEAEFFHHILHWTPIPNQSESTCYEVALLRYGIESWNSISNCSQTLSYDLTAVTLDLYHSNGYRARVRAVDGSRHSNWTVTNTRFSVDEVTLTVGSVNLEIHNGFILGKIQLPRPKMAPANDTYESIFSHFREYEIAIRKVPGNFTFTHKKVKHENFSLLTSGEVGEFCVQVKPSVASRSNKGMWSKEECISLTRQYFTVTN
# T4: murine IL-4 receptor IgG immunoadhesin (murine, UniProt P16382 26-233)
# T4 construct: Tested as concentrated supernatant of vaccinia-infected cells; also called murine IL-4 receptor immunoadhesin; mIL-4R IgG immunoadhesin; not shown: IgG backbone
# T4 sequence (looked up): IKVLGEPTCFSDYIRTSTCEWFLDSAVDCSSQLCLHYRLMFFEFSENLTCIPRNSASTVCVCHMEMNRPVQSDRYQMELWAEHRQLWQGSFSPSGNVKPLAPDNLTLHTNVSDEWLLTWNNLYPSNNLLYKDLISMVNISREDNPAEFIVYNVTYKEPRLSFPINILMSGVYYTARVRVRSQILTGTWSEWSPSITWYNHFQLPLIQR
# Columns and labels:
# [1] = biological target: T1, human IL-10 receptor immunoadhesin …; assay: ELISA inhibition, FIG. 3 bottom
# [2] = biological target: T2, murine IL-10 receptor IgG immunoadhesin; assay: bead depletion assay, FIG. 3 top
# [3] = biological target: T3, human IL-10 receptor IgG immunoadhesin; assay: bead depletion assay, unbound hIL-10 by ELISA, FIG. 1 top
# [4] = biological target: T4, murine IL-4 receptor IgG immunoadhesin; assay: bead depletion assay (immunoadhesin on beads, unbound hIL-10 in filtrate by ELISA), FIG. 1 top
# [5] = biological target: T2, murine IL-10 receptor IgG immunoadhesin; assay: as above
binding result [1],binding result [3],Binder,binding result [2],binding result [4],binding result [5]
no binding,,"murine IL-4 (ligand, UniProt P07750 21-140, looked up, also called mIL-4) HIHGCDKNHLREIIGILNEVTGEGTPCTEMDVPNVLTATKNTTESELVCRASKVLRIFYLKHGKTPCLKKNSSVLMELQRLFRAFRCLDSSISCTMNESKSTSLKDFLESLKSIMQMDYS",no binding (tested: 250 µl of 200 pg/100 µl of mIL-4),,
,binds,"human IL-10 (ligand, UniProt P22301 19-178, looked up, also called hIL-10) SPGQGTQSENSCTHFPGNLPNMLRDLRDAFSRVKTFFQMKDQLDNLLLKESLLEDFKGYLGCQALSEMIQFYLEEVMPQAENQDPDIKAHVNSLGENLKTLRLRLRRCHRFLPCENKSKAVEQVKNAFNKLQEKGIYKAMSEFDIFINYIEAYMTMKIRN",,no binding (tested: 250 µl of 200 pg/100 µl of hIL-10),no binding (tested: 250 µl of 200 pg/100 µl of hIL-10)
